A word on the EC50: it is the midpoint of the concentration-response curve. A word on the Kd: it is the free concentration of one partner at which half of the binding sites on the other are occupied at equilibrium, for simple one-to-one binding. Read a low Kd as tighter binding. Usually koff stands for the rate constant with which the complex falls apart. By kon is commonly meant the rate constant with which the complex forms. The low end stands for slower complex formation, the high end for faster complex formation.

No end group written: not given here. *: point of attachment. Biotin = O=C1N[C@H]2[C@H](CS[C@H]2CCCCC(=O)*)N1

Test [1] has as its target T1, biotin-labeled c-Myc peptide (Biotin-GGGGSEQKLISEEDL).
T1 construct: It is not the BSA conjugate m23; also called biotin c-Myc peptide; stain for Myc CAR
T1 peptide: Biotin-GGGGSEQKLISEEDL
In words: flow cytometry of human T cells 8 days after transduction, stained with biotin-labeled c-Myc peptide plus streptavidin-PE; axis Myc CAR. Here is the method: After 24 h, the activated T cells were harvested, resuspended (1×10⁶/ml) in a TM media containing human IL-7, human IL-15, and the lentiviral concentrate, and cultured for two days for CAR transduction. After washing the transduced T cells, the cells were expanded in TM media with human IL-7 and human IL-15 for eight days before use. CAR expression on the cell surface was determined by flow cytometry using biotin-labeled 6×His peptide (Biotin-[…]; Peptron) for hHis CAR-T or biotin-labeled c-Myc peptide (Biotin-[…]; Peptron) for hMyc CAR-T and PE-labeled streptavidin (Biolegend).
(In general: A flow cytometer gives signals particle by particle.)

Test [2] concerns the target T2, Recombinant human CD40-Fc (1493-CDB, R&D systems) (human, UniProt P25942 21-193).
T2 construct: Bought protein; also called human CD40 recombinant proteins
Kind of test: ELISA, human CD40-Fc coated at 2.5 ug/ml, serial dilutions 0.0001 to 1000 nM, anti-human Ck-HRP, absorbance 450 nm. Here is the method:
FIG. 13A: Recombinant human CD40-Fc (2.5 μg/ml) was coated in ELISA plate and the serial diluents of 2B1-Ck, 2E1-Ck and irrelevant scFv antibody-Ck were loaded. The bound scFv-Cκs were detected by a secondary anti-human Cκ-HRP followed by chromogenic reaction with TMB substrate. The absorbance was measured at 450 nm. […] FIG. 13B: Raji, a CD40-expressing human B lymphoma cell line, was stained with 2B1-Ck, 2E1-Ck or the irrelevant scFv-Cκ (1 μg/1×10⁵ cells), and then stained with secondary anti-human Ck-APC. The binding intensity of the scFv-Cκs were analyzed by flow cytometry. The numbers are mean fluorescence intensities (MFIs) of the binding.
White leghorn chickens were immunized four times with recombinant mouse CD40 (50324-M08H, Sino Biological, China) or human CD40 (10774-H08H, Sino Biological) protein. Total RNA from the bursa of Fabricius, spleen, and bone marrow was isolated using TRIzol reagent (Invitrogen, USA), and cDNA was synthesized using a SuperScript III first-strand cDNA synthesis kit with oligo (dT) primers (Invitrogen) according to the manufacturer's instructions. The scFv phage-display libraries were constructed from the cDNAs as described previously⁵¹. […] The binding of the scFv-Cκs was measured with the secondary antibody (anti-human Cκ-HRP; AP502P, Sigma-Aldrich, USA).
In general terms: In an ELISA, binding on a coated surface is turned into a signal by an enzyme label.

Test [3] concerns the target T3, BSA-conjugated c-Myc peptide (also: conjugated to BSA by thiol-maleimide reaction, thiol residue not given here).
T3 construct: also called the antigen
T3 peptide: EQKLISEEDL
Kind of test: indirect ELISA after bio-panning against BSA-conjugated c-Myc peptide.

In test [4] the target is T4, CD40-hFc protein (Acro Biosystems, #CD0-H5253) (UniProt P25942 21-193).
T4 construct: Bought protein
In words: SPR (Biacore 8K): CD40-hFc captured on immobilized anti-human Fc IgG, scFv injected in 2-fold dilutions (6 curves). The source says: Since the murine anti-His antibody had decreased binding affinity against 6×His peptide after humanization, affinity maturation was further performed to increase it and chicken anti-CD40 antibody (2B1) was only humanized. Serial dilution antibodies at 6 concentrations were used to characterize the kinetics of antibody-antigen binding by SPR. […] So, there was not affinity loss against their antigen after humanization (FIG. 22B).
A Biacore 8K SPR system (Cytiva) equipped with CM5 sensor chip (Cytiva) was used to generate binding kinetic rate and affinity constants. To prepare the capture surfaces for anti-His antibodies, streptavidin was immobilized, followed by biotin conjugated 6×His peptide was captured. The antibodies were 2-fold serial diluted with 1×PBS, then injected at a flow rate of 30 μL/min for 3 minutes, allowing 10 minutes dissociation phase. The surface was regenerated using 10 mM glycine, pH 1.5. The kinetics were analyzed using Biacore 8K evaluation software, version 1.0 (Cytiva). In case of anti-CD40 antibodies, anti-human Fc IgG (Jackson ImmunoResearch) was immobilized, and then CD40-hFc protein (Acro Biosystems, #CD0-H5253) was captured. The antibodies were 2-fold serial diluted with HBS-EP+ buffer (10 mm HEPES, 150 mm sodium chloride, 3 mm EDTA, 0.05% Polysorbate 20), then injected at a flow rate of 30 μL/min for 4 minutes, allowing >15 minutes dissociation phase.
A general note: SPR reads the build-up and loss of mass on a sensor chip optically.

T4 sequence (P25942 21-193 limits assumed): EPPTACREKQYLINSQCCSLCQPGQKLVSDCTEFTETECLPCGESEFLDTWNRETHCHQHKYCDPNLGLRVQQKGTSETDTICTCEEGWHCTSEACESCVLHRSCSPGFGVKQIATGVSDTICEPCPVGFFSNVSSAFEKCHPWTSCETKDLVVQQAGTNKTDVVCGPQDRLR
T2 sequence (P25942 21-193 limits assumed): as above

B1: hMyc (8A9) CAR (8A9-BBz), on human T cells (other)
chain: LTQPSSVSANPGETVEITCSGGSSGYYGWHQQKSPGSAPVTVIYENTNRPSDIPSRFSGSKSGSTATLTITGVQADDEAVYFCGSYDSSSASGIFGAGTTLTVLGQSSRSSGGGGSSGGGGSAVTLDESGGGLQTPGGGLSLVCKASGFTFSSYDMAWVRQEPGKGLEYVASISRSGRYTRYGPAVKGRATISRDNGQSTVRLQLNNLRAEDTATYFCTRGGAVSIDTWGHGTEVIVSSTTTPAPRPPTPAPTIASQPLSLRPEACRPAAGGAVHTRGLDFACDIYIWAPLAGTCGVLLLSLVITLYCKRGRKKLLYIFKQPFMRPVQTTQEEDGCSCRFPEEEEGGCELRVKFSRSADAPAYKQGQNQLYNELNLGRREEYDVLDKRRGRDPEMGGKPRRKNPQEGLYNELQKDKMAEAYSEIGMKGERRRGKGHDGLYQGLSTATKDTYDALHMQALPPR
notes: also called hMyc CAR-T cells (8A9)
Regarding B1, the “number over the gate bar (percent of cells in the gate)” value in test [1] is 21.9.

B2: hMyc (7A1) CAR (7A1-BBz), on human T cells (other)
chain: LTQPSSVSVNPGETVKITCSGGGSSSYYGWYQQKSPGSAPVTLIYQNTNRPSNIPSRFSGSTSGSTGTLTITGVQAEDEAVYFCGSRDSSGDGIFGAGTTLTVLGQSSRSSGGGGSSGGGGSAVTLDESGGGLQTPGRALSLVCKASGFTFSSYDMAWVRQEPGKGLEYVASISRSGRYTRYGPAVKGRATISRDNGQSTVRLQLNNLRAEDTATYFCTRGGAVSIDTWGHGTEVIVSSTTTPAPRPPTPAPTIASQPLSLRPEACRPAAGGAVHTRGLDFACDIYIWAPLAGTCGVLLLSLVITLYCKRGRKKLLYIFKQPFMRPVQTTQEEDGCSCRFPEEEEGGCELRVKFSRSADAPAYKQGQNQLYNELNLGRREEYDVLDKRRGRDPEMGGKPRRKNPQEGLYNELQKDKMAEAYSEIGMKGERRRGKGHDGLYQGLSTATKDTYDALHMQALPPR
notes: also called hMyc CAR-T cells (7A1)
As for B2, the “number over the gate bar (percent of cells in the gate)” value in test [1] was found to be 19.

B3: 2E1-Cκ (anti-human CD40 scFv clone 2E1 fused with human Cκ) (scFv)
scFv: QAALTQPSSVSANPGETVKITCSGSSSSYYGWYQQKAPGSAPVTLIYANDKRPSDIPSRFSGSKSGSTHTLTITGVQADDEAVYFCGSADSTDSGFGAGTTLTVLGQSSRSSGGGGSSGGGGSAVTLDESGGGLQTPGGALSLVCKASGFSFSSYSMHWVRQAPGKGLEFVAAISSDGSRYTHYGPAVKGRATISRDNGQSTVRLQLNNLRPEDTGTYYCAKTSNTWTWNTGWIDAWGHGTEVIVSSTSGQAGQRTVAAPSVFIFPPSDEQLKSGTASVVCLLNNFYPREAKVQWKVDNALQSGNSQESVTEQDSKDSTYSLSSTLTLSKADYEKHKVYACEVTHQGLSSPVTKSFNRGES
notes: also called 2E1-Ck
For the molecule B3, in test [2], the EC50 came out at 1.06 nM.

B4: hMyc (3A6) CAR (3A6-BBz), on human T cells (other)
chain: LTQPSSVSANLGGTVKITCSGGGGSDDGSYYYSWHQQKSPGSAPVTVIYENNNRPSDIPSRFSGSKSGSTATLTITGVQAEDEAVYYCGSRDSSYVDYVGIFGAGTTLTVLGQSSRSSGGGGSSGGGGSAVTLDESGGGLQTPGRALSLVCKASGFTFSSYDMAWVRQEPGKGLEYVASISRSGRYTRYGPAVKGRATISRDNGQSTVRLQLNNLRAEDTATYFCTRGGAVSIDTWGHGTEVIVSSTTTPAPRPPTPAPTIASQPLSLRPEACRPAAGGAVHTRGLDFACDIYIWAPLAGTCGVLLLSLVITLYCKRGRKKLLYIFKQPFMRPVQTTQEEDGCSCRFPEEEEGGCELRVKFSRSADAPAYKQGQNQLYNELNLGRREEYDVLDKRRGRDPEMGGKPRRKNPQEGLYNELQKDKMAEAYSEIGMKGERRRGKGHDGLYQGLSTATKDTYDALHMQALPPR
notes: also called hMyc CAR-T cells (3A6)
In the case of B4, the “number over the gate bar (percent of cells in the gate)” value in test [1] was 38.9.

B5: Anti-Myc scFv clone 8A9 (scFv)
scFv: QAALTQPSSVSANPGETVEITCSGGSSGYYGWHQQKSPGSAPVTVIYENTNRPSDIPSRFSGSKSGSTATLTITGVQADDEAVYFCGSYDSSSASGIFGAGTTLTVLGQSSRSSGGGGSSGGGGSAVTLDESGGGLQTPGGGLSLVCKASGFTFSSYDMAWVRQEPGKGLEYVASISRSGRYTRYGPAVKGRATISRDNGQSTVRLQLNNLRAEDTATYFCTRGGAVSIDTWGHGTEVIVSS
notes: Selected from a chicken scFv phage library by indirect ELISA
Take B5: in test [3], the binding result is “binds”.

B6: Anti-Myc scFv clone 3A6 (scFv)
scFv: QAALTQPSSVSANLGGTVKITCSGGGGSDDGSYYYSWHQQKSPGSAPVTVIYENNNRPSDIPSRFSGSKSGSTATLTITGVQAEDEAVYYCGSRDSSYVDYVGIFGAGTTLTVLGQSSRSSGGGGSSGGGGSAVTLDESGGGLQTPGRALSLVCKASGFTFSSYDMAWVRQEPGKGLEYVASISRSGRYTRYGPAVKGRATISRDNGQSTVRLQLNNLRAEDTATYFCTRGGAVSIDTWGHGTEVIVSS
notes: Selected from a chicken scFv phage library by indirect ELISA; Later produced with an 8×His tag
As for B6, the binding result in test [3] is “binds”.

B7: Anti-Myc scFv clone 7A1 (scFv)
scFv: QAALTQPSSVSVNPGETVKITCSGGGSSSYYGWYQQKSPGSAPVTLIYQNTNRPSNIPSRFSGSTSGSTGTLTITGVQAEDEAVYFCGSRDSSGDGIFGAGTTLTVLGQSSRSSGGGGSSGGGGSAVTLDESGGGLQTPGRALSLVCKASGFTFSSYDMAWVRQEPGKGLEYVASISRSGRYTRYGPAVKGRATISRDNGQSTVRLQLNNLRAEDTATYFCTRGGAVSIDTWGHGTEVIVSS
notes: as for B5
With B7, in test [3], the binding result is recorded as “binds”.

B8: Chicken anti-CD40 scFv (2B1) (scFv)
scFv: QAALTQPSSVSANPGETVKITCSGGDSYAGSYYYGWFQQKAPGSAPVTVIYYNDKRPSDIPSRFSGSTSGSTSTLTITGVQAEDEAVYYCGSIDTSSGTGIFGAGTTLTVLGQSSRSSGGGGSSGGGGSAVTLDESGGGLQTPGGALSLVCKGSGFTFSSYQMFWVRQAPGKGLEYVAEISGSGLSTWYAPAVKGRATISRDNGQSTVRLQLNNLRAEDTGTYYCAKAAGSCGVGTCAGGIVDGIDAWGHGTEVIVSS
notes: also called parental antibody of the humanized anti-CD40 scFv; 2B1 scFv
Take B8: in test [4], binding was put at a Kd of 2.83 nM, the koff came out at 0.00588 s⁻¹ and the kon turned out to be 2.08e+06 M⁻¹ s⁻¹.

B9: 2B1-Cκ (anti-human CD40 scFv clone 2B1 fused with human Cκ) (scFv)
scFv: QAALTQPSSVSANPGETVKITCSGGDSYAGSYYYGWFQQKAPGSAPVTVIYYNDKRPSDIPSRFSGSTSGSTSTLTITGVQAEDEAVYYCGSIDTSSGTGIFGAGTTLTVLGQSSRSSGGGGSSGGGGSAVTLDESGGGLQTPGGALSLVCKGSGFTFSSYQMFWVRQAPGKGLEYVAEISGSGLSTWYAPAVKGRATISRDNGQSTVRLQLNNLRAEDTGTYYCAKAAGSCGVGTCAGGIVDGIDAWGHGTEVIVSSTSGQAGQRTVAAPSVFIFPPSDEQLKSGTASVVCLLNNFYPREAKVQWKVDNALQSGNSQESVTEQDSKDSTYSLSSTLTLSKADYEKHKVYACEVTHQGLSSPVTKSFNRGES
notes: also called 2B1-Ck; free 2B1
For the molecule B9, in test [2], the EC50 was 0.365 nM.

The record behind these values is patent publication US20250018037A1 (SEOUL NATIONAL UNIVERSITY R AND DB FOUNDATION, published 2025).
